From PMC12022973, “Proteomimetic Strategy for the Modulation of Intrinsically Disordered Protein MYC” (Journal of the American Chemical Society, 2025)
Positions of bridges follow the written chain, without caps; N, C: chain ends. Chains are numbered I, II in the order given. No end group written: not given here.

molecular target: T1, recombinant human MYC^353–437 protein (human); assay: fluorescence polarisation; fluorescein-labeled CHDs with His6-MYC^353–437, His6-MAX or the MYC/MAX complex; MYC up to 5 μM (aggregation above); conditions: both partners purified
T1 construct: MYC, human, residues 353-437; Aggregates above 5 μM; also called His6-MYC^353–437; source: recombinant

Kd | Binder
> 5000 nM | fluorescein-labeled CHD^Max-3 (negative control) (designed binder, bridge I:11-II:16; not fully specified (bridges); also: fluorescein label, chain and position not given here) chain 1: LREKAATLQWCIEELRK chain 2: LRRKAETAQWEIEELC
350 ± 17 nM | fluorescein-labeled CHD^Max-1 (cross-linked helix dimer derived from MAX) (designed binder, bridge I:11-II:16; not fully specified (bridges); also: fluorescein label, chain and position not given here) chain 1: LREKIATLQWCIEELRK chain 2: LRRKNETHQWEIEELC
880 ± 53 nM | fluorescein-labeled CHD^Max-2 (designed binder, bridge I:11-II:16; not fully specified (bridges); also: fluorescein label, chain and position not given here) chain 1: LREKIATLQWCIEELRK chain 2: LEARIETHQWRIRELCE
